Laboratory results from publication PMC7185714, “Structure and conformational cycle of a bacteriophage-encoded chaperonin” (PLoS ONE, 2020).

How the values were obtained:
[1] = molecular target: T1, GroEL from E. coli (E. coli, UniProt P0A6F5 1-548)
[2] = molecular target: chaperonin gp146 (ɸEL) from the phage EL of Pseudomonas aeruginosa (Pseudomonas bacteriophage EL)
[3] = molecular target: T2, ɸEL (gp146) (Pseudomonas phage EL, UniProt Q2Z0T5); test: cryo-EM structure ([…] Å); format: binding; settings: double ring, D7, pH 7.5, Mg2+; slowly hydrolysed ATP analogue; pseudo-atomic model
T2 construct: tetradecameric double ring (~863 kDa) or single-ring heptamer (~431 kDa, with ATP and in the crystals)
T2 sequence (Q2Z0T5 1-558): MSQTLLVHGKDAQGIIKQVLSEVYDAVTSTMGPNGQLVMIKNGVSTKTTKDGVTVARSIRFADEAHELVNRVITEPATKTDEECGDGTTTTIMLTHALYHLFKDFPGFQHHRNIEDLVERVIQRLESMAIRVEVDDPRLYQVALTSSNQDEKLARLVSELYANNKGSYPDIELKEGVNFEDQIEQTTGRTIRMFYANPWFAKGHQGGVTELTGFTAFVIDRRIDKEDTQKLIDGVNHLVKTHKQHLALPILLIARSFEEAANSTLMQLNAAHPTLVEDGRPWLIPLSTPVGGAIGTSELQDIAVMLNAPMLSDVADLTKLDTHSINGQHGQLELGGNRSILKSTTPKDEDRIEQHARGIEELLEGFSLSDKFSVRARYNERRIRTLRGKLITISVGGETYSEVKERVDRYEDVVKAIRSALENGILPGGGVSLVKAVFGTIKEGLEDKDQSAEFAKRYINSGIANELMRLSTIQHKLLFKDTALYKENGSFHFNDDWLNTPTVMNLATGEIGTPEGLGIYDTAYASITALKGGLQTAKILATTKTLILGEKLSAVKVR

[4] = molecular target: T3, GroEL (Escherichia coli, UniProt P0A6F5); test: NADH-coupled ATPase assay; format: biochemical; settings: 1 mM ATP, 50 mM Tris-HCl pH 7.5, 10 or 100 mM KCl, 10 mM MgCl2, 25°C; without GroES; rates only in figure
T3 construct: purified GroEL tetradecamer; source and preparation not described

[5] = molecular target: T2, ɸEL (gp146); test: X-ray crystal structure ([…] Å, crystal form I); format: binding; settings: ATP added with BeSO4/NaF; ATP and ADP-BeFx not distinguishable, modelled as ATP with Mg2+; single-ring heptamer, equatorial domain site; also in form II (6TMU, 3.54 Å; chains A, C, E, G)
[6] = molecular target: chaperonin gp146 (ɸEL) from the phage EL of Pseudomonas aeruginosa (Pseudomonas bacteriophage EL); test: cryo-EM structure; apo-ɸEL, no nucleotide, single particle analysis, C2 symmetry, 3.45 Å
[7] = molecular target: chaperonin gp146 (ɸEL) from the phage EL of Pseudomonas aeruginosa (Pseudomonas bacteriophage EL); test: cryo-EM structure; ɸEL with ADP, single particle analysis, D7 symmetry, 5.9 Å
[8] = molecular target: chaperonin gp146 (ɸEL) from the phage EL of Pseudomonas aeruginosa (Pseudomonas bacteriophage EL); test: SEC-MALS; ɸEL at 2 g/L, with 2 mM ATP, 20 mM HEPES-NaOH pH 7.5, 50 mM KCl, 4 mM Mg acetate, 25°C
[9] = molecular target: chaperonin gp146 (ɸEL) from the phage EL of Pseudomonas aeruginosa (Pseudomonas bacteriophage EL); test: SEC-MALS; ɸEL at 2 g/L, with 2 mM ATP, 20 mM HEPES-NaOH pH 7.5, 100 mM KCl, 2 mM Mg acetate, 25°C
[10] = molecular target: chaperonin gp146 (ɸEL) from the phage EL of Pseudomonas aeruginosa (Pseudomonas bacteriophage EL); test: cryo-EM structure; ɸEL with ATPγS, single particle analysis, D7 symmetry, 5.8 Å
[11] = molecular target: chaperonin gp146 (ɸEL) from the phage EL of Pseudomonas aeruginosa (Pseudomonas bacteriophage EL); test: SEC-MALS; ɸEL at 2 g/L, no nucleotide, 20 mM HEPES-NaOH pH 7.5, 100 mM KCl, 2 mM Mg acetate (also run at 50 mM KCl), 25°C
[12] = molecular target: chaperonin gp146 (ɸEL) from the phage EL of Pseudomonas aeruginosa (Pseudomonas bacteriophage EL); test: crystal structure; ɸEL crystallised with 2 mM ATP, 5 mM BeSO4 and 20 mM NaF; crystal forms I (4.03 Å) and II (3.54 Å)
[13] = molecular target: chaperonin gp146 (ɸEL) from the phage EL of Pseudomonas aeruginosa (Pseudomonas bacteriophage EL); test: SEC-MALS; ɸEL at 2 g/L, with 2 mM ADP, 20 mM HEPES-NaOH pH 7.5, 100 mM KCl, 2 mM Mg acetate (also run at 50 mM KCl), 25°C
[14] = molecular target: T2, ɸEL (gp146); test: cryo-EM structure ([…] Å); format: binding; settings: double ring, D7, pH 7.5, Mg2+; pseudo-atomic model; ADP also modelled in crystal form II (6TMU, chains B, D, F, partial occupancy)
[15] = molecular target: T1, GroEL from E. coli; test: cell-based or functional assay
[16] = substrate: Nc1ncnc2c1ncn2[C@@H]1O[C@H](COP(=O)(O)OP(=O)(O)OP(=O)(O)O)[C@@H](O)[C@H]1O; test: NADH-coupled ATPase assay (pyruvate kinase/lactate dehydrogenase), Hill fit; format: biochemical, Pseudomonas phage EL; settings: high salt: 50 mM Tris-HCl pH 7.5, 100 mM KCl, 10 mM MgCl2, 25°C, Hill coefficient fitted

T1 sequence (P0A6F5 whole entry): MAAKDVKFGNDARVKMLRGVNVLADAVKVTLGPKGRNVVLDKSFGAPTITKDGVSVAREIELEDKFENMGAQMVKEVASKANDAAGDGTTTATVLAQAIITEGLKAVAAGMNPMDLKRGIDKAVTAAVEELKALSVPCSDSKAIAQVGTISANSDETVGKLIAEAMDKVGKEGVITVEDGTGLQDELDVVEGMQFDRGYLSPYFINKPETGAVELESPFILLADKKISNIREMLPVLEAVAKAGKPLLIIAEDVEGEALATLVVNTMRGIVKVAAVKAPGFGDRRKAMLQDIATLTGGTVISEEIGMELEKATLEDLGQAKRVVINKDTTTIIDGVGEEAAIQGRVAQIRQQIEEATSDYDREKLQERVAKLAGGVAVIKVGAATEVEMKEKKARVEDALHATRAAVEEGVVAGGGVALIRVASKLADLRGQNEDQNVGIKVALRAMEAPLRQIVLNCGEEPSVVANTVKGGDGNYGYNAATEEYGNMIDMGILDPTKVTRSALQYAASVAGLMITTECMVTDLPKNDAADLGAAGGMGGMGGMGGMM
T3 sequence (P0A6F5 2-548): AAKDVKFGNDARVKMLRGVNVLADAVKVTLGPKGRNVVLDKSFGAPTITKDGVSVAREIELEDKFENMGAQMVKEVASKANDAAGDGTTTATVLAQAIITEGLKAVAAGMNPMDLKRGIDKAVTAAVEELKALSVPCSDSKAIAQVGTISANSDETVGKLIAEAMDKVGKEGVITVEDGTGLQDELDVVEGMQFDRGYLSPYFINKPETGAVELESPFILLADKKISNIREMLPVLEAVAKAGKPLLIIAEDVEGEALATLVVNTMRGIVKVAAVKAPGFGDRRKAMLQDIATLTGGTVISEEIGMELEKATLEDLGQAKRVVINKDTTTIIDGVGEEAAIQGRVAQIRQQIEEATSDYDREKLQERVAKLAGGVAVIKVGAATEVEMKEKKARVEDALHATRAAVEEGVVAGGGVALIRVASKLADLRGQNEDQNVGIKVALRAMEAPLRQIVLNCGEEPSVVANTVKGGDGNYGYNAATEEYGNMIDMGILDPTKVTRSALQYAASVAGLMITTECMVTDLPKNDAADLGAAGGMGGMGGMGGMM

In the case of “double mutant of maltose binding protein (DM-MBP), denatured (from UniProt P0AEX9 27-396) (natural protein)”, the GroEL ATPase activity with denatured DM-MBP, at 10 and 100 mM KCl, 1 mM ATP [1] is reported as 2 fold and the decrease in ɸEL ATPase activity with denatured DM-MBP, at 10 mM KCl, 1 mM ATP [2] is reported as 60%.

With `Nc1ncnc2c1ncn2[C@@H]1O[C@H](COP(=O)(O)OP(=O)(O)OP(O)(O)=S)[C@@H](O)[C@H]1O` [ATPγS] the “cryo-EM structure (5.8 Å)” value [3] was “we also determined the cryo-EM structure of ɸEL in the presence of the slowly hydrolyzing”.

In the case of `Nc1ncnc2c1ncn2[C@@H]1O[C@H](COP(=O)(O)OP(=O)(O)OP(=O)(O)O)[C@@H](O)[C@H]1O` [ATP], the “NADH-coupled ATPase assay” value [4] is reported as “ATPase activity of GroEL and ɸEL in presence and absence of a two-fold excess” and the “X-ray crystal structure (4.03 Å, crystal form I)” value [5] is reported as “All subunits as judged from the electron density had either ATP or ADP•BeFX bound”.

With “chaperonin gp146 (ɸEL) from the phage EL of Pseudomonas aeruginosa (natural protein)” the stoichiometry N [6] was 14, the stoichiometry N [7] was 14 and the stoichiometry N [8] was 14. For the same molecule, the stoichiometry N [9] was 7, the stoichiometry N [10] was 14 and the stoichiometry N [11] was 14. It also gave a stoichiometry N [12] of 7 and a stoichiometry N [13] of 14.

With `Nc1ncnc2c1ncn2[C@@H]1O[C@H](COP(=O)(O)OP(=O)(O)O)[C@@H](O)[C@H]1O` [ADP] the “cryo-EM structure (5.9 Å)” value [14] was “we determined the solution structure of ɸEL in the presence of ADP by single-particle cryo-EM”.

B1: E. coli GroES (natural protein)
chain: MNIRPLHDRVIVKRKEVETKSAGGIVLTGSAAAKSTRGEVLAVGNGRILENGEVKPLDVKVGDIVIFNDGYGVKSEKIDNEEVLIMSESDILAIVEA
With B1 the “decrease in GroEL ATPase activity with a 2-fold molar excess of GroES, at 10 and 100 mM KCl, 1 mM ATP” value [15] was roughly 50%.

B2: ɸEL (gp146) (Pseudomonas phage EL) (protein)
chain: MSQTLLVHGKDAQGIIKQVLSEVYDAVTSTMGPNGQLVMIKNGVSTKTTKDGVTVARSIRFADEAHELVNRVITEPATKTDEECGDGTTTTIMLTHALYHLFKDFPGFQHHRNIEDLVERVIQRLESMAIRVEVDDPRLYQVALTSSNQDEKLARLVSELYANNKGSYPDIELKEGVNFEDQIEQTTGRTIRMFYANPWFAKGHQGGVTELTGFTAFVIDRRIDKEDTQKLIDGVNHLVKTHKQHLALPILLIARSFEEAANSTLMQLNAAHPTLVEDGRPWLIPLSTPVGGAIGTSELQDIAVMLNAPMLSDVADLTKLDTHSINGQHGQLELGGNRSILKSTTPKDEDRIEQHARGIEELLEGFSLSDKFSVRARYNERRIRTLRGKLITISVGGETYSEVKERVDRYEDVVKAIRSALENGILPGGGVSLVKAVFGTIKEGLEDKDQSAEFAKRYINSGIANELMRLSTIQHKLLFKDTALYKENGSFHFNDDWLNTPTVMNLATGEIGTPEGLGIYDTAYASITALKGGLQTAKILATTKTLILGEKLSAVKVR
notes: tetradecameric double ring (~863 kDa) or single-ring heptamer (~431 kDa, with ATP and in the crystals)
B2 was tested, and the Km [16] was 72 ± 8 µM and the kcat [16] was 9.6 ± 0.12 s⁻¹ (per tetradecamer).
